# Source: US8765674B2, “Methods useful in the treatment of bone resorption diseases” (NPS Pharmaceuticals, Inc., priority 1997, dated 2014)
# What was measured:
# [1] = system: patient with osteoporosis; settings: during therapy with PTH, cited from earlier work
# [2] = system: Postmenopausal females with osteoporosis; test: Clinical study: PTH (1-84) given for one year, bone mineral density; type: in vivo, human; settings: subcutaneous injection, 50 to 100 micrograms daily
# Source text: Postmenopausal females (n=172) with osteoporosis were given intact human PTH (1-84), as a subcutaneous injection, for one year in doses from 50 to 100 micrograms daily. It was shown that bone mineral density of the spine was increased in the lumbar spine, on the average by 8%. Increases in individual patients were considerably more than 10%. The changes of the femoral neck were smaller and ranged from 1 to 3%.
Molecule,activation frequency ([1]; calculated),bone mineral density in the femoral neck [1],increases of lumbar spine bone mineral density in individual patients [2],"increase of bone mineral density of the lumbar spine, on the average ([2]; n=172)"
"PTH: Parathyroid hormone, an 84 amino acid polypeptide normally secreted from the parathyroid glands (protein, UniProt P01270 32-115, looked up) Parathyroid hormone: SVSEIQLMHNLGKHLNSMERVEWLRKKLQDVHNFVALGAPLAPRDAGSQRPRKKEDNVLVESHEKSLGEADKADVNVLTKAKSQ",doubled,largely unaffected,,
"intact human PTH (1-84): intact human parathyroid hormone, full-length 84 amino acid polypeptide (protein, UniProt P01270 32-115, looked up) Parathyroid hormone: SVSEIQLMHNLGKHLNSMERVEWLRKKLQDVHNFVALGAPLAPRDAGSQRPRKKEDNVLVESHEKSLGEADKADVNVLTKAKSQ",,,more than 10%,8%
